Test results as given in patent US7166733B2, “O,O'-Amidomalonate and N,O-Amidomalonate platinum complexes” (priority 2000, dated 2007).

What was measured:
[1] = Dependence on pH of the isomer ratio of O,O′—Pt to N,O—Pt chelate (195Pt NMR of timed aliquots); assay type: physicochemical
Experimental: The percent of O,O′- and N,O-chelate in timed aliquots of reactions mixtures were determined by removing enough of the reaction mixture (4–15 mL depending on concentration) to give greater than 100 mg of Pt-chelate if only ^195Pt NMR spectroscopy was to be done or about 200 mg if % Pt, and % H2O were also to be determined. The aliquots were purified by ultrafiltration using a Centricon Plus-20 centrifugal filter with a 5 kDa Biomax membrane from Millipore. The charged device was spun at the recommended RCF until less than 1 mL remained. The filtrate was discarded, the retentate was diluted with 15–18 mL water and the sample was centrifuged. This was repeated once more, and the retentate was lyophilized to give the sample for analysis.
^195Pt NMR spectra were obtained from a filtered 0.70 mL solution in 93/7 H2O/D2O in a 5 mm tube. Enough sample (80–120 mg) was used to give a solution that was >50 mM in platinum. The probe was tuned for each sample. A pulse width of 90 degrees, an acquisition time of 10 msec, a spectral window of 100 kHz and no delay was used. The transmitter was tuned to approximately midway between the O,O′—Pt and N,O—Pt chelates shifts (−1896 ppm for cis-diammine Pt and at −2450 for DACH—Pt). Between 50,000 and 1 million transients were typically required to obtain a sufficient (>35:1) s/n ratio for the cis-diammine-Pt and DACH=Pt species, respectively. The resulting FID was increasingly left-shifted until a flat baseline was obtained, a 100 Hz line broadening was applied, and a Fourier fill of 2048 was applied before processing. Integral regions were set and the spectrum's baseline was subjected to a spline fit using VNMR software v6.1. The sample was referenced externally to a 100 mM sample of K2PtCl4 in 95/5H2O/D2O and 100 mM HCl at −1624 ppm. This was also used to determine the 90 degree pulse width and T1.
Four 50 mL Centrifuge tubes were each charged with 1.00 g of p(HPMA)-GFLG-Ama=Pt(NH3)2 (either 100% N,O-chelate) or a 92% O,O-chelate, 8% N,O-chelate mixture. These materials were dissolved in 27 mL Milli-Q water (approx a 4 wt % solution) and adjusted to the pH ranges desired using 1 M NaOH or 5% HClO4 as appropriate. The samples were then heated, with stirring, in a 38° C. water bath and maintained within their specified pH ranges. Timed aliquots were taken and frozen until a suitable time at which point the solutions were concentrated by centrifugal ultrafiltration (one spin down at 4800 rpm, 30° C.) and then transferred to an NMR tube. A small amount of D2O was added to each tube and the ^195Pt NMR spectra were recorded.

[2] = Platinum release from PBS; assay type: physicochemical; settings: 37° C.
Experimental: The percent of small platinum species released over time was measured by dissolving about 30 mg of the polymer-platinum conjugate in 15 mL of phosphate buffered saline (10 mM phosphate, 123 mM Cl^−) and incubating the solution at 37° C. in a water bath. At indicated times, 2.0 mL aliquots were transferred to a centrifugal filter with a 3 kDa nominal molecular weight cutoff (Centricon YM-3 from Millipore) and spun until >1.5 mL of filtrate had accumulated. The timed filtrates and the original solution were analyzed for platinum by ICP-OES. The percent of small Pt species released was determined using the formula: ((ppm Pt in filtrate)/(ppm Pt in stock solution))×100.

[3] = Single-dose IV maximum tolerated dose study; assay type: in vivo; settings: mice, highest dose with no drug-induced deaths
From the text: For these studies, the MTD was defined as the highest dose evaluated in which no mouse deaths resulted from drug-induced toxicity.

[4] = pH 5.0–5.5, 38° C., 100 mM ClO4^−, 1 h
[5] = pH 5.0–5.5, 38° C., 100 mM ClO4^−, 5 h
[6] = pH 5.0–5.5, 38° C., 100 mM ClO4^−, 8 h
[7] = pH 5.0–5.5, 38° C., 100 mM ClO4^−, 22 h
[8] = pH 5.0–5.5, 38° C., 100 mM Cl^−, 1 h
[9] = pH 5.0–5.5, 38° C., 100 mM Cl^−, 5 h
[10] = pH 5.0–5.5, 38° C., 100 mM Cl^−, 8 h
[11] = pH 5.0–5.5, 38° C., 100 mM Cl^−, 22 h

## poly(HPMA)-GFLG-Ama=Pt(NH3)2, N,O—Pt chelate [Example 4]
[1]; pH 3.0–3.5, 38° C., 1 h
  N,O— chelate: 2%
  O,O— chelate: 98%
[1]; pH 3.0–3.5, 38° C., 5 h
  N,O— chelate: 0%
  O,O— chelate: 100%
[1]; pH 3.0–3.5, 38° C., 20 h
  N,O— chelate: 0%
  O,O— chelate: 100%
[1]; pH 4.0–4.5, 38° C., 1 h
  N,O— chelate: 55%
  O,O— chelate: 45%
[1]; pH 4.0–4.5, 38° C., 5 h
  N,O— chelate: 44%
  O,O— chelate: 56%
[1]; pH 4.0–4.5, 38° C., 20 h
  N,O— chelate: 32%
  O,O— chelate: 68%
[1]; [4]
  N,O— chelate: 90%
  O,O— chelate: 10%
[1]; [5]
  N,O— chelate: 88%
  O,O— chelate: 12%
[1]; [6]
  N,O— chelate: 77%
  O,O— chelate: 23%
[1]; [7]
  N,O— chelate: 75%
  O,O— chelate: 25%
[1]; [8]
  N,O— chelate: 91%
  O,O— chelate: 9%
[1]; [9]
  N,O— chelate: 92%
  O,O— chelate: 8%
[1]; [10]
  N,O— chelate: 89%
  O,O— chelate: 11%
[1]; [11]
  N,O— chelate: 87%
  O,O— chelate: 13%
[1]; pH 5.0–5.5, 38° C., 1 h
  N,O— chelate: 94%
  O,O— chelate: 6%
[1]; pH 5.0–5.5, 38° C., 5 h
  N,O— chelate: 85%
  O,O— chelate: 15%
[1]; pH 5.0–5.5, 38° C., 20 h
  N,O— chelate: 81%
  O,O— chelate: 19%
[1]; pH 6.0–6.5, 38° C., 1 h
  N,O— chelate: 100%
  O,O— chelate: 0%
[1]; pH 6.0–6.5, 38° C., 5 h
  N,O— chelate: 100%
  O,O— chelate: 0%
[1]; pH 6.0–6.5, 38° C., 20 h
  N,O— chelate: 100%
  O,O— chelate: 0%
[2]; 3 hours
  Pt release in PBS: 0.6%
[2]; 24 hours
  Pt release in PBS: 2.0%
[3]
  maximum tolerated dose (MTD): 400 mg PVkg
